From PMC6684607

Assays:
[1] = molecular target: TNF domain of Spodoptera frugiperda Eiger (SfEiger), endogenous soluble form released from Sf9 cells (Spodoptera frugiperda (endogenous in Sf9)); experiment: crystal structure; X-ray, 1.7 A, space group R 3:H, one protomer in the asymmetric unit, trimer generated by the crystallographic threefold axis; crystal grown at 298 K in MORPHEUS condition 1-26
[2] = molecular target: Recombinantly expressed TNF domain of Spodoptera frugiperda Eiger (SfEiger) (Spodoptera frugiperda); experiment: SEC; Superdex 200 Increase 10/300 GL; elution volume compared with a protein standard

| Substance | stoichiometry N [1] | stoichiometry N [2] |
| --- | --- | --- |
| TNF domain of Spodoptera frugiperda Eiger (SfEiger), endogenous soluble form released from Sf9 cells (domain or fragment) | 3 |  |
| Recombinantly expressed TNF domain of Spodoptera frugiperda Eiger (SfEiger) (domain or fragment) |  | 3 |
